Experiment: yeast display, Sf9 membrane polyspecificity reagent, FACS + sequencing; frameworks hold sequencing errors
Method in brief: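 Galactose induction of a Saccharomyces cerevisiae BJ5465 synthetic nanobody display library ran 36–48 hours. The cells were then stained for 1 hour at 4 °C with 10% biotinylated, detergent-solubilized Sf9 membrane reagent, pulled down on streptavidin microbeads and FACS-sorted into low and high (top ~1%) gates on expression and reagent-binding fluorescence. Labels for polyreactivity follow the gate of origin.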

Sequence	polyreactivity (PSR sort gate)
QVQLVESGGGLVQAGGSLRLSCAASGRTFVPYAMGWYRQAPGKEREFLAAISWRGGSTYYADSVKGRFTISRDNAKNTVYLQMNSLKPEDTAVYYCAARYKRGFGVRFGYDYWGQGTQVTVSS	high polyreactivity
QVQLVESGGGLVQAGGSLRLSCAATGSISGYYAMGWYRQAPGKERELVASIRYTGARTYYADSVKGRFTISRDNAKNTVYLQMNSLKPEDTAVYACAADVKRDRVWGGDYWGQGTQVTVSS	low polyreactivity
QVQLVESGGGLVQAGGSLRLSCAASGSIFITYAMGWYRQAPGKERELVAAIRDSGDRTYYADSVKGRFTISRDNAQNTVYLQMNSLKPEDTAVYHCNARWQEPLKYDYWGQGTQVTVSS	low polyreactivity
QVQLVESGGGLVQQGGILRLSCASSGSNFILNEMGWSRQAPRKDRELVATISSSDTSTYYADSVKGRFTISRDNAKNTVYVQMNSLKPEDTAVYYCNADYYTTSYLQRVYHYGVEYDYWGQGTQVTVSS	low polyreactivity
QVQLVESGGGLVQAGGSLRLSCAASGSTFFLYMGWYRQAHGKERELVAAITVSGGSTYYADSVKGRFTISRDNAKNTVYLQMNSLKPEDTAVYYCNADWVMRYDYWGQGTQVTVSS	low polyreactivity
QVQLVESGGGLVQAGGSLRLRCAASGLTFVRYTMGWYRPAPGKERELVAAITYSDASTYYADSVKGRFTISRDNAKNTVYLQKNSLKPEDTAVYYCAAVYFGGPRSNSPYSRYGYWGQGTQVTVSS	low polyreactivity
QVQLVESGGGLVQAGGSLRLSCAASGIIFVRYVMGWYRQAPGKERELVAAINWSGGSTYYAYSVKGRFTISRDNANNTVYLQMNSLKPEDTAVYYCAAGSARDDDYWGQGTQVPVSS	high polyreactivity
QVQLVESGGGLVQAGGSLRLSCAASGSTFRLYAMGGSRQAPGKERELVAAIRSGGNTNNADSVKGRFTISRDNAKHTVYLQMNSLKPEDTAVYYCNGFSGQLPVPNYDYWGQGTQVTVSS	high polyreactivity
QVQLVESAGGLVQAGGSLSLSCAATGITFPYVMGWYRQAPGKQRELVAAISRTGTSTYYADSVKGRFTISRDNAKNTVYLQMNSLKPEDTAVYYCAARTQTQVYPAYGYWGQGTQVTVSS	high polyreactivity
QVQLVESGGGLDQAGGSLRLSCAASGSTFVGYAMGWYRQAPGKERELVAAISQSDVSTYYADSVKGRFTISRDNAKNTVYLQMNSLKPEDTAVYYCAADRGGLRWFWQVLYDYWGQGTQVTVSS	low polyreactivity
QVQLVESGGGLVQAGGSLRLSCAASGSIFDVYAMGWYRQAPGKERELVARITWSGGSTYYADSVKGRFTISRDNAKNTVYLQMTSLKPEDTAVYYCNVDQVHPTRGLDYWGQGTQVTVSS	low polyreactivity
QVQLVESGVGLVQAGGSLRLSCAASGSTLPYYAMGWYRQAHGKERQMVAAITTSGGDTYSADSVKGRFTISRDNAKNTVYLQMNSLKPEDTAVYYCAISYSARSTVRKLFYFAYDYWGQGTQVTVSS	low polyreactivity
QVQLVESGGGLVQAGGRHRLSCAASGSTFSYNAMGWYRQAPGKERELVATISNTDSTNYADSVKGRFTISRDNAKNTVYLQMNSLKPEDTAVYYCAVVSARFDYEYWGQGTQVTVSS	low polyreactivity
QVQLVESGGGLVQAGGSLRLSCAASGSIFGINAMGWYRQAPGKERELVAAISGSTSRTYYADSVKGRFTISRDTAKNTVYLQMNSLKPEDTAVYYCARVKGVYHFSILDYWGQGTQVTVSS	high polyreactivity
QVQHVESGGGLVQAGGSLRLSCAASGSTFYENAMGWYRQAPGKERELGAGIRSTGRTYYADSVKGRFTISRDNAKNTVYIQMNSLKPEDTAVYYCAAYVGTYGEYDYWGQGTQVTVSS	low polyreactivity
QVQLVESGGGLVQAGGSLRLSSAASGRIFSIYAMGWYRQAPGKERELVAAITDRGGTTHYADSVKGRFTISRDYAKNTVYLQMNSLKPEDTAVYYCASDTYDYSSVEDFDYWGQGTQVTVSS	low polyreactivity
QVQLVESGGGLVQAAGSLRLSCAASGSIFTYYAKGCYRQATRKERELVATINRIGGNTYDADSVKGRFTLSSDNAKNTVYLQMNRLKPEDNAVYYCAAKPTYRGYGYGSWGQGTQVTVSS	low polyreactivity
QVQLQESAGGLVQAGGSLRLRCSASGYSSCDASMGWYRQAPGKERELAASITKGSSTNYADSVKGRFTIRDNAKNTVYLQMNSLKPEDTAVWYCGVTYPYWGDYTYWGKGTQVTVSS	low polyreactivity
QVQLVESGGGLVQAGGSLRLSCAASGFTFSPYAMGWYRQATGKERELVAAIRWTDGSTYYADSVKGRFTISRDNAKNTVYLQMNSLKPEDTAVYYCAAYWYHNIGGYGPGLNYWGEGTQVTVSS	high polyreactivity
QVQLVESGGGLVQAGGSLRLSCAASGFICVHKAMGWYREAPGNERELVAAITWSGGRTYYADSVKGRCTISRDKAKNTVYLQKNSLKPEDTAVYYCATTVNSHVPGVSKYYYWGHGTQVTVSS	high polyreactivity
QVQLVESGGALVHAGGSLRLTCAASGYTFRYYAMRWYRQAPGKERELVARINRSGGSTYYADSVKGRFTISRDNAKNTVYLQMNSLKPEDTAVYYCNRDYGWHYSYEYWGQGTQVTVSS	high polyreactivity
QVQLAESGGGLVQAGGSLRLSCAASGSNFSPNAMGWYRQAPGKERELVAAITAGARTNYADSVKGRFTISRDNSKNTFYLQMNSLKPEDTAVYYCNAESYYDYNYWGQGTQVTVSS	low polyreactivity

Sequence	polyreactivity (PSR sort gate)
QDQHVESGGGLVQAGGSLRLSCAASGSTFAWYSMGWYRQAPGKERELVASITSTGSTNYADSVKGRYTISRDNAKNTVYLQMNSLKPVDTAVYYCAAAVRAWYLRLYDYWGQGTQVTVSS	high polyreactivity
QVQLLESGGGLVQAGGSLRLSCAASGSIFRGNAMGWYRQAPGKERELVAAISQRGTSTYYADSVKGRFTISRDYAKNTVYLQMNSLKPEDTAVYYCNALYWQIGDDYWGQGTQVTVSS	high polyreactivity
QVQLVESGGGLVQAGGSLRLSCAASGSIFQHYAMGWYRQAPGKERELVARISYSGGNTYYADSVKGRFTISRDNAKNTVYLQMNSLKPEDTAVYYCAATRSHYPYRSGGDYWGQGTQVTVSS	low polyreactivity
QVQLVESGGGLVQAGGSLRLSSAASGRTFNYYPMGWYRQAPGKQWELVAAISDSAGDTYYADSVKGRFTISRDNAKNTVDLQKNSQKPEDPAVYYCAVVRGGRGYPGYDYWGQGTQVTVSS	low polyreactivity
QVQLVESGGGLVQAGGSLRLSCAASGSTIDGNAMGWYRQAPGKERELVAAITSGGSTNYADSVKGRFTISRDNAKNTVYLQMNSLKPEDTAVYYCAADTVSFSILYDYWGQGTQVTVSS	low polyreactivity
QVQLVESGGGLVQAGGSLRLSCTASGSTFVAYAMGWYRQAPGKERELVAAITSSGGRTYYADSVKGRFTISRDNAKNTVYLQMNSLKPEDTAVYYCNVYPSRRRAVGESERYYWGQGTQVTVSS	high polyreactivity
QVQLVESGGGLVQAGGSLRLSCAASGRIFSWYTMGWYRQAPGKERELVAIISRSGGSTYYADSVKGRFTISRDNAKNTVYLQMNSLKPEDTAVYYCNARWSFSYTVWVDSYWGLDDYWGQGTQVTVSS	high polyreactivity
QVQLVESGGGLVQAGGSLRLSCAASGSIFRYYAMGWYRQAPGKERELVAAISSSGGSTYYADSVKGRFTISRDNAKNTVYLQMNSLKPEDTAVYYCARDWPSYYARQYDYWGQGTQVTVSS	high polyreactivity
QVQLVESGRGLVQAGGSLRLSCAASGRILDSNAMGWDRQAPGKESELVAAITWRGGSTYYADSVKGRFTISRDNAKNTVYLQMNSLKPEDTAVYYCNARWSKTAHTRFGYWGQGTQVTVSS	low polyreactivity
QVQLVESGGGLVQAGGSLRLSCAASGIIFGGNVMGRYRQAPGKVRELVAAITWSGGTTYYADSVKGRFTISRDNAKNTVYLQMNSLKPEDTAVYYCAADRVYLDYVAGTYDYWGQGTQVTVSS	low polyreactivity
QVQQQESGGGLEQAGGSLRLSCAASGTIFQLTVMGRYRQAPGKERELVASIDYGGNTNYADSVKGRFTISRDNAKKTVYLQMNSLKPEDTAVYYCAASSDSWTTHPYWGQGTQVTVSS	low polyreactivity
QVQLVESGGGLVQAGGSLSLICAASGSTFRYYTMGWYRQAPGKERELVAVISRSDDSTYADSVKGRFTISRDNAKNTVYLQMNSLKPVDTAVYYCAAAGGLFFRSTVPRGDFWGQGTQVTVSS	low polyreactivity
QVQLVESGGGLVQAGGSLRLSCAASGRNFGWYAMGWYRQATGKERELVAAITSGSRTSYADSVKGRFTISRDNAKNTVYLQMNSLKPEDTAVYYCARRSYGIYYRSADDSWGQGTQVTVSS	high polyreactivity
QVQLVESGGGLVQAGGSLRLSCAASGRILYRYVMGRYRQAPGKERELVAGISWSGGSTYYADSVKGRFTISSDTAKNTVYLQMNSLKPEVTAVYYCASTFRTYAPRPYQGDYWGQGTQVTVSS	low polyreactivity
QVQIVESGGGLVQAGGSLRLSCAASGSIFLKYAMGWYRQAPGKERELVATFSRGGSTNYADSVKGRFTISRDNAKITVYFQMNSLKPEDTAVYNCARRRTYPPGRYYYWGQGTQVTVSS	high polyreactivity
KVQLVESGGGLVQAGGSLRLSCAASGRIFYVNTMGWYRQAPGKERELVATITWGGDSTYYADSVKGRFTISRDNAKNTVYLQMNSLKPEDTAVYYCAADHHDIRLNTRRYDYWGQGTQVTVSS	low polyreactivity
QVQLQESGGGLEQAGGDLRLSCAASGNIFRDYIMGWYRQAPGKEREFVAGIDRGANTNYADSVKGRFTISRDNAKNTVYLQMNSLKPEDTAVYYCAVHTAIVADFIYWGQGTQVTVSS	low polyreactivity
QVQLVESGGGLVQAGGSLRLSCAASGSTFSTNAMGWYRQAPGKERELVASITRSGGSTYYADSVKGRFTISRDNAKNTVYLQMNSLKPEDTAVYYCNADGYYDYDYGYWGQGTQVTVSS	low polyreactivity
QVQLVESVGGLVQAGGSLRLTCAASGIILHDNTMGWYRQAPGKEREVVAAITSDGSTNYADSVKGRFTISRDNAKNTVYLQMNSLKPEDTAVYYCNTDDGPYTEFDYWGQGTQVTVSS	low polyreactivity
QVQLVESGGALVQAGGSLRLSCAASGSTMGWYRQAPGKVREFVAAIRWIGGGTYYADSVKGRFTISRDNAKNTVYLQMNSLKPEDTGVYYCAARLSVAWVGYDYWGQGTQVTVSS	low polyreactivity
QVQLVESGGGLVQAGGSLRLSCAASGRTFRKYTMGWYRQAPGKERELVAAITLSGGSTYYADSVKGRFTISRDNAKNTVYLQMNSLKPEDTAVYYCAARYNRGAFDYWGQGTQVTVSS	high polyreactivity
